{"source": "patent US20110081659", "biological_target": "T1, ULight-labeled 4E-BP1 fragment peptide GSK3 substrate (non-primed)", "T1 chain": "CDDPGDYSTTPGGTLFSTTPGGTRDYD"}
{"protein": "GSK3α (Carna) (protein) MSGGGPSGGGPGGSGRARTSSFAEPGGGGGGGGGGPGGSASGPGGTGGGKASVGAMGGGVGASSSGGGPGGSGGGGSGGPGAGTSFPPPGVKLGRDSGKVTTVVATLGQGPERSQEVAYTDIKVIGNGSFGVVYQARLAETRELVAIKKVLQDKRFKNRELQIMRKLDHCNIVRLRYFFYSSGEKKDELYLNLVLEYVPETVYRVARHFTKAKLTIPILYVKVYMYQLFRSLAYIHSQGVCHRDIKPQNLLVDPDTAVLKLCDFGSAKQLVRGEPNVSYICSRYYRAPELIFGATDYTSSIDVWSAGCVLAELLLGQPIFPGDSGVDQLVEIIKVLGTPTREQIREMNPNYTEFKFPQIKAHPWTKVFKSRTPPEAIALCSSLLEYTPSSRLSPLEACAHSFFDELRCLGTQLPNNRPLPPLFNFSAGELSIQPSLNAILIPPHLRSPAGTTTLTPSSQALTETPTSSDWQSTDATPTLTNSS", "values": [{"measurement": "S/B, LANCE Ultra kinase assay, 20 nM enzyme, n = 1", "result": 35.7}, {"measurement": "S/B, LANCE Ultra kinase assay, 20 nM enzyme, n = 2", "result": 33.2}]}
